According to US20180009871A1 (INTARCIA THERAPEUTICS, published 2018):
Where no end group is shown, it is not given here. [ ]: non-standard residue; d: D form. Formula III = not defined here; Formula II = not defined here; Aib = CC(C)(N)C(=O)O

B1: Compound B10 (peptide)
peptide: YSHGTFTSDYSKYLD[Aib]KSAQEFVKWLEDEPSSGAPPPS-OH
modifications: not fully specified (residue 24); printed as YSHGTFTSDYSKYLD(Aib)KSAQEFVK****WLEDEPSSGAPPPS-OH; also: structure of Formula II substituent not given here

What was measured:
[1] = molecular target: human glucagon receptor (GCGR) (human, UniProt P47871 26-477); experiment: cell-based or functional assay
[2] = molecular target: human GLP-1 receptor (GLP-1R) (human, UniProt P43220 24-463); experiment: cell-based or functional assay
Chain of human GLP-1 receptor (GLP-1R) (P43220 24-463): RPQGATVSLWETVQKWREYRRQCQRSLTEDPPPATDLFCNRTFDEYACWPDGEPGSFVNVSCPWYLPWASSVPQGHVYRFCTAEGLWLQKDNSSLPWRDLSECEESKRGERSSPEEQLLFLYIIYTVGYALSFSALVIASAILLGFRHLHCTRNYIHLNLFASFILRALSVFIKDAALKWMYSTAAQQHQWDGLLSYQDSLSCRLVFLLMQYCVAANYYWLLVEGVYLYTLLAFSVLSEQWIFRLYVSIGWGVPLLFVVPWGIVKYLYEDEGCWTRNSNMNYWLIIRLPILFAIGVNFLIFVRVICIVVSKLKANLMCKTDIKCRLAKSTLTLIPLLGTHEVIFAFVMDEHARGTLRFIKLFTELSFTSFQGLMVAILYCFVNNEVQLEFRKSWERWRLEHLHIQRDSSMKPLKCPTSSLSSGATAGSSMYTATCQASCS

Binder | GluR pEC 50 [1] | GLP-1R pEC 50 [2]
YSHGTFTSDK(Formula III)SKYLD[Aib]KSAQEFV[Aib]WLEDEPSSGAPPPS-OH (reading uncertain) [Compound B16] | 8.5 pEC50 | 8.3 pEC50
YSHGTFTSDYSKYLD[Aib]KSAQEFV[Aib]WLEDEPSSK(Formula II)APPPS-OH (reading uncertain) [Compound B9] | 11.1 pEC50 | < 6 pEC50
YSHGTFTSDYSKYLDSARAQEFVK(Formula II)WLEDEPSSGAPPPS-NH2 (reading uncertain) [Compound B42] | 9.7 pEC50 | < 6 pEC50
YSHGTFTSDYSKYLD[Aib]KRAQEFVIWLEDEPSSK(Formula III)APPPS-OH (reading uncertain) [Compound B29] | 9.8 pEC50 | 7 pEC50
YSHGTFTSDK(Formula II)SKYLDSARAQEFVKWLEDEPSSGAPPPS-NH2 (reading uncertain) [Compound B44] | 11.9 pEC50 | 7.2 pEC50
B1 | 9.9 pEC50 | < 6 pEC50
YSHGTFTSDYSKYLD[Aib]KSAQEFVK(Formula III)WLEDEPSSGAPPPS-OH (reading uncertain) [Compound B14] | 9.3 pEC50 | < 6 pEC50
YSQGTFTSDYSKYLDAARAQEFVK(Formula II)WLEDEPKSKSPPPS-NH2 (reading uncertain) [Compound B34] | 9.8 pEC50 | < 6 pEC50
WSQGTFTSDK(Formula II)SKYLD[Aib]KRAQEFV[Aib]WLEDEPSSGAPPPS-OH (reading uncertain) [Compound B20] | 11.1 pEC50 | 6.5 pEC50
YSHGTFTSDYSKYLD[Aib]KRAQEFVIWLEDEPSSK(Formula II)APPPS-OH (reading uncertain) [Compound B25] | 10.5 pEC50 | < 6 pEC50
YSHGTFTSDYSKYLD[Aib]KRAQK(Formula III)FVIWLEDEPSSGAPPPS-OH (reading uncertain) [Compound B30] | 9.7 pEC50 | 7 pEC50
YSHGTFTSDK(Formula III)SKYLD[Aib]KRAQEFVIWLEDEPSSGAPPPS-OH (reading uncertain) [Compound B32] | 9.4 pEC50 | 7.8 pEC50
YSQGTFTSDK(Formula II)SKYLDAARAQEFVKWLEDEPKSKSPPPS-NH2 (reading uncertain) [Compound B36] | 11.5 pEC50 | 8.1 pEC50
YSHGTFTSDYSKYLD[Aib]KSAQEFV[Aib]WLEDEPSSK(Formula III)APPPS-OH (reading uncertain) [Compound B13] | 9.2 pEC50 | < 6 pEC50
YSHGTFTSDYSKYLDK(Formula III)KYAQEFV[Aib]WLEDEPSSGAPPPS-OH (reading uncertain) [Compound B7] | 8.6 pEC50 | < 6 pEC50
WSQGTFTSDYSKYLDK(Formula III)KRAQEFV[Aib]WLEDEPSSGAPPPS-OH (reading uncertain) [Compound B23] | 9.5 pEC50 | 6.5 pEC50
YSQGTFTSDYSKYLDK(Formula II)ARAQEFVKWLEDEPKSKSPPPS-NH2 (reading uncertain) [Compound B35] | 11.1 pEC50 | 6.6 pEC50
YSHGTFTSDK(Formula II)SKYLD[Aib]KSAQEFV[Aib]WLEDEPSSGAPPPS-OH (reading uncertain) [Compound B12] | 11.5 pEC50 | 7.2 pEC50

Binder | GluR pEC 50 [1] | GLP-1R pEC 50 [2]
YSQGTFTSDYSKYLDAARAQEFVK(Formula III)WLEDEPKSKSPPPS-NH2 (reading uncertain) [Compound B38] | 9.6 pEC50 | 6 pEC50
YSQGTFTSDYSKYLDAARAQEFVKWLEDEPKSK(Formula II)SPPPS-NH2 (reading uncertain) [Compound B33] | 10.6 pEC50 | < 6 pEC50
WSQGTFTSDYSKYLDK(Formula II)KRAQEFV[Aib]WLEDEPSSGAPPPS-OH (reading uncertain) [Compound B19] | 10.6 pEC50 | 6.3 pEC50
YSHGTFTSDYSKYLDK(Formula III)KRAQEFVIWLEDEPSSGAPPPS (reading uncertain) [Compound B31] | 10.6 pEC50 | 7.4 pEC50
WSQGTFTSDYSKYLD[Aib]KRAQEFV[Aib]WLEDEPSSK(Formula II)APPPS-OH (reading uncertain) [Compound B17] | 10.5 pEC50 | < 6 pEC50
WSQGTFTSDYSKYLD[Aib]KRAQEFVK(Formula II)WLEDEPSSGAPPPS-OH (reading uncertain) [Compound B18] | 10.2 pEC50 | < 6 pEC50
WSQGTFTSDK(Formula III)SKYLD[Aib]KRAQEFV[Aib]WLEDEPSSGAPPPS-OH (reading uncertain) [Compound B24] | 8.2 pEC50 | 6.8 pEC50
YSQGTFTSDK(Formula III)SKYLDAARAQEFVKWLEDEPKSKSPPPS-NH2 (reading uncertain) [Compound B40] | 11.9 pEC50 | 7.2 pEC50
YSHGTFTSDYSKYLDK(Formula II)KRAQEFVIWLEDEPSSGAPPPS (reading uncertain) [Compound B26] | 11 pEC50 | < 6 pEC50
YSHGTFTSDYSKYLDK(Formula II)KSAQEFV[Aib]WLEDEPSSGAPPPS-OH (reading uncertain) [Compound B11] | 10.3 pEC50 | 6.3 pEC50
YSQGTFTSDYSKYLDAARAQEFVKWLEDEPKSK(Formula III)SPPPS-NH2 (reading uncertain) [Compound B37] | 10.1 pEC50 | 6.2 pEC50
YSHGTFTSDK(Formula II)SKYLD[Aib]KRAQEFVIWLEDEPSSGAPPPS-OH (reading uncertain) [Compound B27] | 11.5 pEC50 | 6.6 pEC50
YSHGTFTSDK(Formula III)SKYLD[Aib]KYAQEFV[Aib]WLEDEPSSGAPPPS-OH (reading uncertain) [Compound B8] | 10.6 pEC50 | < 6 pEC50
YSHGTFTSDYSKYLDK(Formula III)KSAQEFV[Aib]WLEDEPSSGAPPPS-OH (reading uncertain) [Compound B15] | 9.9 pEC50 | < 6 pEC50
YSQGTFTSDYSKYLDK(Formula III)ARAQEFVKWLEDEPKSKSPPPS-NH2 (reading uncertain) [Compound B39] | 10.9 pEC50 | 6 pEC50
YSHGTFTSDYSKYLDSARAQEFVKWLEDEPSSK(Formula II)APPPS-NH2 (reading uncertain) [Compound B41] | 10.6 pEC50 | < 6 pEC50
YSHGTFTSDYSKYLDK(Formula II)ARAQEFVKWLEDEPSSGAPPPS-NH2 (reading uncertain) [Compound B43] | 11.1 pEC50 | < 6 pEC50
